Source: PMC10786891, “Massively parallel profiling of RNA-targeting CRISPR-Cas13d”
Positions count from the first letter of the chain named. Names and notes keep the numbering of the source.

T1: EsCas13d, nuclease-dead (Eubacterium siraeum, UniProt B0MS50, R295A;H300A;R849A;H854A)
T1 sequence: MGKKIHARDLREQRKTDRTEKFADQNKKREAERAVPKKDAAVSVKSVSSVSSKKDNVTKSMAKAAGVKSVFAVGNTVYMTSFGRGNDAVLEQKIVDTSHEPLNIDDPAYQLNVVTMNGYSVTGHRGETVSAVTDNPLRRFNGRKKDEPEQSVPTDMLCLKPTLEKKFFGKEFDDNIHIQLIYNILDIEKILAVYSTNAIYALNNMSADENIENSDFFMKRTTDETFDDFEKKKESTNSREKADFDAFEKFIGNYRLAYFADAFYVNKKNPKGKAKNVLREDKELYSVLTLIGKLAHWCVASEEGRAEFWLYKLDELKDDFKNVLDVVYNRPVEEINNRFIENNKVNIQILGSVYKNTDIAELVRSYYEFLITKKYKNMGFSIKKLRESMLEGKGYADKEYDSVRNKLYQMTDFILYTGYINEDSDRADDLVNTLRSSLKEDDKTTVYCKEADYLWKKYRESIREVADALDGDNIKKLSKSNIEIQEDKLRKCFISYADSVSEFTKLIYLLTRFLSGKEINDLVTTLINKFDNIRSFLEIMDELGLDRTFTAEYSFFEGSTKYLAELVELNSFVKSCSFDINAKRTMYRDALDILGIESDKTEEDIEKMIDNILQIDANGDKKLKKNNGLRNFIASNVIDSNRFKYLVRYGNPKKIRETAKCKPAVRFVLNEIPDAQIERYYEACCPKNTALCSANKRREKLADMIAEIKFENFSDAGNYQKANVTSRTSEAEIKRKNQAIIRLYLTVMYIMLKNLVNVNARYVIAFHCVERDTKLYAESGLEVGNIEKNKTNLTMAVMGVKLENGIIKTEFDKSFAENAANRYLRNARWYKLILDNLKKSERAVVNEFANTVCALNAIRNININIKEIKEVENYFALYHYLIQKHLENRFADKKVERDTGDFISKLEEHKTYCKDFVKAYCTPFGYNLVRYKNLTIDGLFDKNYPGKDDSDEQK

B1: target 1 C7U,A20U (mixed)
RNA 1: CACCCGUGCAAAAAUGCAGGGGUCUAAAACUGAGCGGAUAACCUCUCUAUGG
RNA 2: GGGAAUGGAUCCACAUCUACGAAUUCGUACCUUAGAGAGGUUAUUCGCUCACCGAGAUCGGAAGAGCACACGU
B2: target 1 del7,del11 (mixed)
RNA 1: B1 RNA 1
RNA 2: GGGAAUGGAUCCACAUCUACGAAUUCGUACCAUAGAGAGGUAUCGCUCACCGAGAUCGGAAGAGCACACGU
B3: target 1 C2A,G5A (mixed)
RNA 1: B1 RNA 1
RNA 2: B1 RNA 2 with U32A, U45C, G47A, C50A
B4: target 1 U3C,U8C (mixed)
RNA 1: B1 RNA 1
RNA 2: B1 RNA 2 with U32A, U44C, U45C, U49C
B5: target 1 C2U,U8A (mixed)
RNA 1: B1 RNA 1
RNA 2: B1 RNA 2 with U32A, U44A, U45C, C50U
B6: target 1 insA 3' of 10,insC 3' of 9 (mixed)
RNA 1: B1 RNA 1
RNA 2: GGGAAUGGAUCCACAUCUACGAAUUCGUACCAUAGAGAGGUUAACUCCGCUCACCGAGAUCGGAAGAGCACACGU
B7: target 1 insC 3' of 22,insU 3' of 14 (mixed)
RNA 1: B1 RNA 1
RNA 2: GGGAAUGGAUCCACAUCUACGAAUUCGUACCCAUAGAGAUGGUUAUCCGCUCACCGAGAUCGGAAGAGCACACGU
B8: target 1 G15U,C21U (mixed)
RNA 1: B1 RNA 1
RNA 2: B1 RNA 2 with C31U, U32A, G37U, U45C
B9: target 1 insA 3' of 13,insA 3' of 10 (mixed)
RNA 1: B1 RNA 1
RNA 2: B6 RNA 2 with G40A, U41G, A43U, C45A
B10: target 1 insG 3' of 14,insA 3' of 5 (mixed)
RNA 1: B1 RNA 1
RNA 2: B6 RNA 2 with U41G, A43U, C45U, U46C, C48G, G49A
B11: target 1 insG 3' of 22,insG 3' of 3 (mixed)
RNA 1: B1 RNA 1
RNA 2: GGGAAUGGAUCCACAUCUACGAAUUCGUACGCAUAGAGAGGUUAUCCGCUGCACCGAGAUCGGAAGAGCACACGU
B12: target 1 C6U,A14C (mixed)
RNA 1: B1 RNA 1
RNA 2: B1 RNA 2 with U32A, A38C, U45C, C46U
B13: target 1 C4A,G5C (mixed)
RNA 1: B1 RNA 1
RNA 2: B1 RNA 2 with U32A, U45C, G47C, C48A
B14: target 1 insC 3' of 12,insC 3' of 3 (mixed)
RNA 1: B1 RNA 1
RNA 2: B6 RNA 2 with U41C, A43U, C45U, U46C, C48G, G49C, C50U, U51C
B15: target 1 insG 3' of 18,insA 3' of 3 (mixed)
RNA 1: B1 RNA 1
RNA 2: B11 RNA 2 with G31C, C32A, A33U, U34A, A35G, G51A
B16: target 1 insU 3' of 17,insA 3' of 8 (mixed)
RNA 1: B1 RNA 1
RNA 2: B6 RNA 2 with A36U, G37A, A38G, G39A, U41G, A43U, C45U, U46A

Target: T1, EsCas13d, nuclease-dead
Experiment: crRNA (strand 1, pre-loaded); Mg2+; 40 mM Tris-HCl pH 7.5, 150 mM NaCl, 6 mM MgCl2, 1 mM DTT, 0.1% Tween-20, 0.2 mg/ml BSA; 25 C; 10 min per concentration, then washed
Conditions: tags: His6-TwinStrep-SUMO cleaved; N-terminal SNAP kept (SNAP-Surface 488); label: 3' end held by stalled T7 RNA polymerase

Binder	Kd
B1	41.2 ± 3.4 nM
B2	15.4 ± 0.5 nM
B3	31.6 ± 3.2 nM
B4	13.4 ± 0.6 nM
B5	21.2 ± 1 nM
B6	14.4 ± 0.5 nM
B7	40 ± 10 nM
B8	6.4 ± 0.5 nM
B9	4.3 ± 0.5 nM
B10	8.1 ± 0.4 nM
B11	21.5 ± 2.1 nM
B12	20 ± 1 nM
B13	20.9 ± 1.7 nM
B14	12.3 ± 2.6 nM
B15	49.3 ± 3.1 nM
B16	24.6 ± 1.5 nM
